Measured values: patent US20090028881A1

Legend:
[1] = target: CCR5 mutant K171A (human) (UniProt P51681); test: alanine scanning epitope mapping; wild-type CCR5 defined as 100%
[2] = target: CCR5 mutant E172A (human) (UniProt P51681); test: as above

B1: <CCR5>Pz03.1C5 (antibody, V domains shown)
VH: QVQLKQSGPGLVRPSQSLSITCTVSGFPLGIFGVHWVRQSPGKGLEWLGVIWKGGNTDYNAAFMSRLRITKDNSKSQVFFRMNSLQTDDTAIYYCAKVNLADAMDYWGQGTSVIVSS
VL: DIQMTQSPASLSASVGETVTITCRASGNIHGYLAWFQQKQGKSPQLLVYNTKTLAEGVPSRFSGSGSGTQFSLKINSLQPEDFGNYYCQHHYDLPRTFGGGTKLEIKR
**Q.** How did the epitope binding (% of wild-type CCR5) [1] turn out when B1 was run?
**A.** 20%

**Q.** And the epitope binding (% of wild-type CCR5) [2]?
**A.** 20%
